Test results published in the supplement of paper PMC10126150.
± gives the standard deviation of the averaged measurements.

test system: ATP; test: switch fluorescence ratio, 500 uM ATP over buffer (Cy3 cluster intensity, sum of 5 cycles each) (fold (ratio)); higher = stronger signal-on switching upon ATP binding; sequences stand for … in TCGTCGGCAGCGTCAGATGTGTATAAGAGACAGTTTTTTTTTTTTTTTTTTTTTTTTT…TC; conditions: aptamer strand: ATP DNA aptamer (quencher-CACCTGGGGGAGTATTGCGGAGGAAGG + anchor), 100 nM annealed; ATP concentration: 500 uM
Method in brief: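 Imaging in selection buffer was followed by imaging after 15 min with 500 uM ATP at 22 °C, for Cy3-labelled switching-strand clusters annealed to 100 nM quencher-labelled ATP aptamer on a modified Illumina MiSeq flow-cell. Five of these buffer/ATP cycles ran, separated by NaOH stripping and re-annealing. The fluorescence ratio per cluster is summed target-cycle over summed buffer-cycle Cy3 intensity, averaged per switch-domain sequence; clusters outside 100-1000 RFU were removed.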
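Also: ATP exposure 15 min at 22 °C before imaging.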

Point of comparison: AACGGCAGGG, switch fluorescence ratio 1 ± 0.024. Against it:
- AACGAATTAG — within error, 1.04 ± 0.038
- AACGACAATT — higher, 1.118 ± 0.0016
- AACGACTTGT — within error, 1.01 ± 0.037
- AACGAGAAGC — within error, 0.9895 ± 0.004
- AACGCATGTG — the same, 1 ± 0.039
- AACGCCTTCG — higher, 1.177 ± 0.011
- AACGCGAACG — higher, 1.06 ± 0.016
- AACGCGAGTA — within error, 0.986 ± 0.03
- AACGCGTGGG — within error, 1.01 ± 0.003
- AACGCTGGCG — within error, 0.966 ± 0.028
- AACGGACGCT — higher, 1.16 ± 0.064
- AACGGACGGG — higher, 1.27 ± 0.095
- AACGGAGAGC — within error, 1.034 ± 0.01
- AACGGAGTGC — the same, 1 ± 0.045
- AACGGCTCTC — within error, 0.988 ± 0.043
- AACGGGATTA — within error, 0.987 ± 0.047
- AACGGGCTTT — within error, 0.969 ± 0.013
- AACGGGGTCT — within error, 0.978 ± 0.011
- AACGGGTATG — within error, 1.011 ± 0.004
- AACGGTCACA — higher, 1.16 ± 0.021
- AACGGTCAGA — within error, 1.02 ± 0.05
- AACGGTGGGG — within error, 0.992 ± 0.034
- AACGGTTGCG — within error, 0.965 ± 0.016
- AACGGTTTAA — higher, 1.05 ± 0.014
- AACGTACTTG — higher, 1.54 ± 0.044
- AACGTAGCGG — higher, 1.07 ± 0.03
- AACGTAGGGA — within error, 1.93 ± 1.2
- AACGTAGTCG — higher, 1.031 ± 0.0046
- AACGTCTCGA — within error, 1.01 ± 0.025
- AACGTGAGTG — within error, 1.02 ± 0.011
- AACGTGCCTG — within error, 0.979 ± 0.077
- AACGTGCGTG — within error, 0.9973 ± 0.0028
- AACGTGTGGG — within error, 0.996 ± 0.1
- AACGTTAGGA — within error, 1.03 ± 0.051
- AACGTTATAA — higher, 1.05 ± 0.02
- AACGTTCATG — within error, 1.02 ± 0.044
- AACGTTTAGG — within error, 1.015 ± 0.0099
- AACGTTTTCT — within error, 0.991 ± 0.012
- AACTAGAGAC — within error, 0.975 ± 0.01
- AACTAGAGGG — within error, 0.98 ± 0.017
- AACTATAATG — within error, 0.997 ± 0.044
- AACTATGCAG — within error, 1.02 ± 0.017
- AACTCGGAAT — within error, 1.03 ± 0.028
- AACTCGTGGG — within error, 0.975 ± 0.026
- AACTCTAGCA — higher, 1.073 ± 0.0052
- AACTCTTAAG — within error, 1.03 ± 0.02
- AACTCTTCTT — within error, 1.04 ± 0.035
- AACTGAAGTC — within error, 0.976 ± 0.01
- AACTGAGATT — within error, 1.02 ± 0.024
- AACTGATTTC — within error, 0.963 ± 0.03
- AACTGCAACA — higher, 1.22 ± 0.031
- AACTGGGGGG — the same, 1 ± 0.045
- AACTGTATAT — higher, 1.15 ± 0.019
- AACTGTCAGA — within error, 0.9903 ± 0.0036
- AACTGTTGTA — within error, 0.986 ± 0.0024
- AACTTAGTAT — within error, 1.018 ± 0.01
- AACTTATTTT — the same, 1 ± 0.003
- AACTTGGCGC — within error, 1.01 ± 0.057
- AACTTGGGTG — within error, 1.02 ± 0.035
- AACTTTAGGG — within error, 0.997 ± 0.039
- AACTTTATGA — within error, 1.02 ± 0.01
- AACTTTGTGC — the same, 1 ± 0.055
- AACTTTTACG — higher, 1.074 ± 0.0069
- AACTTTTCAT — within error, 1.02 ± 0.02
- AACTTTTGCT — within error, 1.03 ± 0.066
- AACTTTTTAA — within error, 1.01 ± 0.012
- AAGAAAATAC — the same, 1 ± 0.024
- AAGAAAGGGG — within error, 0.979 ± 0.034
- AAGAAAGGTC — within error, 0.994 ± 0.12
- AAGAAATTTG — within error, 0.992 ± 0.015
- AAGAACTATG — within error, 1.02 ± 0.034
- AAGAACTTGC — within error, 0.982 ± 0.053
- AAGAAGGAGG — within error, 1.01 ± 0.029
- AAGAAGTGTA — within error, 1.006 ± 0.0083
- AAGAATATCA — within error, 1.02 ± 0.016
- AAGACGATGT — within error, 0.995 ± 0.013
- AAGACGGGGT — within error, 1.01 ± 0.049
- AAGACTGTTT — within error, 0.954 ± 0.026
- AAGACTTCTT — within error, 0.98673 ± 0.00038
- AAGACTTGTG — within error, 0.981 ± 0.019
- AAGAGACAGG — within error, 1.05 ± 0.042
- AAGAGAGGCA — within error, 1.02 ± 0.023
- AAGAGATACG — within error, 1.04 ± 0.059
- AAGAGATTTG — within error, 0.981 ± 0.018
- AAGAGCAGGG — within error, 0.975 ± 0.011
- AAGAGCCATC — lower, 0.9527 ± 0.009
- AAGAGCCGCG — within error, 1.03 ± 0.045
- AAGAGCGAAG — within error, 1.01 ± 0.014
- AAGAGCGAGG — within error, 0.945 ± 0.036
- AAGAGCTAGT — the same, 1 ± 0.013
- AAGAGGAGAG — higher, 1.036 ± 0.0073
- AAGAGGGCCT — within error, 1.01 ± 0.037
- AAGAGGGCTT — within error, 0.994 ± 0.016
- AAGAGGGGTG — within error, 1.01 ± 0.025
- AAGAGGGTAT — within error, 0.9835 ± 0.0065
- AAGAGGTGAA — within error, 0.987 ± 0.013
- AAGAGGTGGA — within error, 1.028 ± 0.0098
- AAGAGTGTGG — within error, 1.02 ± 0.058
- AAGAGTTCCT — within error, 1.03 ± 0.032
- AAGAGTTCGT — within error, 0.955 ± 0.023
- AAGATAGAAC — within error, 0.9783 ± 0.0068
- AAGATCACTT — within error, 0.979 ± 0.041
- AAGATCTCGC — within error, 0.994 ± 0.025
- AAGATCTTAT — within error, 1.01 ± 0.031
- AAGATGCAGC — within error, 1.05 ± 0.12
- AAGATGGAGG — within error, 0.973 ± 0.037
- AAGATGGGGA — within error, 1.01 ± 0.016
- AAGATTCGCG — within error, 0.9914 ± 0.0014
- AAGATTGAGC — lower, 0.937 ± 0.022
- AAGATTTAAG — within error, 1.02 ± 0.014
- AAGATTTCGG — within error, 1.015 ± 0.0084
- AAGATTTGAG — within error, 0.992 ± 0.01
- AAGCAGGGGA — within error, 1.05 ± 0.032
- AAGCATGGGA — within error, 1.01 ± 0.022
- AAGCCCGCAC — higher, 1.879 ± 0.0067
- AAGCCGGCTA — within error, 1.03 ± 0.023
- AAGCCGTAGG — within error, 0.991 ± 0.044
- AAGCCGTGTC — within error, 1.01 ± 0.031
- AAGCGGCTCG — within error, 0.996 ± 0.03
- AAGCGGGG — within error, 1.006 ± 0.002
- AAGCGGGGAA — within error, 1.02 ± 0.03
- AAGCGGGGAG — within error, 1.04 ± 0.04
- AAGCGGGGGT — within error, 1.02 ± 0.026
- AAGCGTCTCA — within error, 0.997 ± 0.011
- AAGCGTCTGG — within error, 1.02 ± 0.024
- AAGCGTTTTT — within error, 1.018 ± 0.0045
- AAGCTAAAAT — within error, 0.996 ± 0.053
- AAGCTAATTT — within error, 1.01 ± 0.011
- AAGCTCGTGC — within error, 0.973 ± 0.089
- AAGCTTATAT — the same, 0.9999 ± 0.0089
- AAGCTTATGC — within error, 1.04 ± 0.085
- AAGCTTGTGT — within error, 0.997 ± 0.069
- AAGCTTTCGT — within error, 1.03 ± 0.014
- AAGGAAGCCG — within error, 1.06 ± 0.044
- AAGGACACGG — higher, 1.042 ± 0.01
- AAGGACCCCT — higher, 1.06 ± 0.026
- AAGGACGCCA — within error, 1.05 ± 0.028
- AAGGACGGGG — within error, 0.974 ± 0.011
- AAGGACGGTG — the same, 1.0045 ± 0.00079
- AAGGAGAAGA — within error, 0.993 ± 0.01
- AAGGAGCTTG — within error, 0.9735 ± 0.0038
- AAGGAGGGGT — within error, 0.9968 ± 0.0081
- AAGGAGGGTG — within error, 1.02 ± 0.019
- AAGGAGTAGC — within error, 1.04 ± 0.095
- AAGGATCGTT — the same, 1 ± 0.018
- AAGGATTAAC — within error, 0.985 ± 0.032
- AAGGCACAAG — the same, 1 ± 0.021
- AAGGCACCGT — within error, 1.03 ± 0.038
- AAGGCAGGGC — within error, 0.972 ± 0.04
- AAGGCCTATA — within error, 0.998 ± 0.0088
- AAGGCGACGT — within error, 0.994 ± 0.015
- AAGGCGGGTA — the same, 1 ± 0.021
